Data reported in paper PMC5547543.

Assays:
Hck (2PA-YEEI) [1] = target: Hck (2PA-YEEI) (UniProt P08631)
Hck (2PA-YEEI) [2] = target: Hck (2PA-YEEI) (UniProt P08631); experiment: SPR; Hck (2PA-YEEI) amine-coupled (EDC/NHS) to a CMD 500 carboxymethyl dextran chip, 6053 RU, BIAcore 2000; Csk, Chk, Chk mutants and chimera as analytes in HBS (10 mM HEPES pH 7.4, 150 mM NaCl, 3.4 mM EDTA, 0.005% Tween 20); global fit to a 1 to 1 model with mass transfer; molecular binding activity from the maximum response

inhibition of the kinase activity of Hck (2PA-YEEI) (0.5 μM) on the cdc2 (6-20) peptide after pre-incubation with Chk; more than 60% at 1.5 μM, up to 8.3 μM Chk (Hck (2PA-YEEI) [1]): 80%
Kd (Hck (2PA-YEEI) [2]): 64 nM
koff (Hck (2PA-YEEI) [2]): 0.000272 s⁻¹
kon (Hck (2PA-YEEI) [2]): 4250 M⁻¹ s⁻¹
molecular binding activity (MBA) at 2.2 μM Chk (Hck (2PA-YEEI) [2]; scale: mol of analyte bound per mol of immobilized Hck): 0.46
B1: Csk-homologous kinase (Chk), recombinant wild type (enzyme)
chain: MQGHFPAERREGRPRRGTRGQQQLLVSPRFLRAWHPPPVSARMPTRRWAPGTQCITKCEHTRPKPGELAFRKGDVVTILEACENKSWYRVKHHTSGQEGLLAAGALREREALSADPKLSLMPWFHGKISGQEAVQQLQPPEDGLFLVRESARHPGDYVLCVSFGRDVIHYRVLHRDGHLTIDEAVFFCNLMDMVEHYSKDKGAICTKLVRPKRKHGTKSAEEELARAGWLLNLQHLTLGAQIGEGEFGAVLQGEYLGQKVAVKNIKCDVTAQAFLDETAVMTKMQHENLVRLLGVILHQGLYIVMEHVSKGNLVNFLRTRGRALVNTAQLLQFSLHVAEGMEYLESKKLVHRDLAARNILVSEDLVAKVSDFGLAKAERKGLDSSRLPVKWTAPEALKHGKFTSKSDVWSFGVLLWEVFSYGRAPYPKMSLKEVSEAVEKGYRMEPPEGCPGPVHVLMSSCWEAEPARRPPFRKLAEKLARELRSAGAPASVSGQDADGSTSPRSQEP
